Sequences and labels used below:
B1: I283T-P284D-N287P-S322T-N388M-E421V-C430N-L432F-L434W-S436N-H461V-dG462-A463T (protein)
chain: MFLKSLREQINLLKRQGDLRIINRPVDSYLEAAAIIRRSTETKAPVPLMTNIKGYPGCSIVGGLAALSSNPEYPLSRVAMSLGLSTTASAQSIVQYLIDGLKKTPYLPVEIDSNSAPCKQNILRGEDASLAHFPIPQVHQHDGNRYVNTWGVFIVESPDGQWCNWSIQRVQYLNDRQMIALVFPSQHISDIWEEWVKIGKPMPYALVQGCEPIVPYIAGLPLLERNVNEAEYIGALYGKGIEVVKCETHDLRVPASSEVVIEGYFAITREGVEGPFGEFAGYTDNEPSLQPILSITAISWQDDPIWPVVAEGKPVDEYHTCTGIGDAAAIQNVLLTANLPVSFVWVPLYSACHLMIVSINRHWRQTHPDLTSEQLTKKVGDVIHQTRMSIKLPKIVVLDDDVDPADTESLLWALATRIHPVRKRYFYESNIFPWLNCYSEEERHNRKGKRVIIDALLPENVGTISSFDYAYPDDIKQRVLMHWETDFSHD
B2: I283T-P284D-i284aP-N287P-S322T-N388M-E421V-R422F-C430N-L432F-L434W-S436N-H461T-dG462-A463T (protein)
chain: B1 chain with R422F, V461T
B3: I283T-P284D-N285M-N287T-S322T-N388M-K394R-C430A-L432F-L434W-S436N-G462P-A463P-I464P (protein)
chain: B1 chain with N285M, P287T, K394R, V421E, N430A, V461H, G462P, T463P, I464P
B4: I283T-N285P-N287T-Q290E-S322T-N388M-K394R-C430A-L432F-L434W-S436N-dG462 (protein)
chain: B1 chain with D284P, N285P, P287T, Q290E, K394R, V421E, N430A, V461H, T463A
B5: I283T-N285P-N287T-Q290E-S322T-N388M-K394R-C430A-L432F-L434W-S436N-dH461 (protein)
chain: B1 chain with D284P, N285P, P287T, Q290E, K394R, V421E, N430A, V461H, T463A
B6: I283T-P284D-N285M-N287T-S322T-N388M-K394R-C430A-L432F-L434W-S436N-G462T-A463P (protein)
chain: B1 chain with N285M, P287T, K394R, V421E, N430A, V461H, G462T, T463P
B7: I283T-N285P-N287T-Q290E-S322T-N388M-K394R-dR422-C430A-L432F-L434W-S436N-dG462 (protein)
chain: B1 chain with D284P, N285P, P287T, Q290E, K394R, V421E, N430A, V461H, T463A
B8: I283T-P284D-N287P-S322T-N388M-E421V-R422F-C430N-L432F-L434W-S436N-H461T-dG462-A463T (protein)
chain: B1 chain with R422F, V461T
B9: I283T-P284D-N285M-N287T-L289H-S322T-N388M-K394R-C430A-L432F-L434W-S436N-G462P-A463P (protein)
chain: B1 chain with N285M, P287T, L289H, K394R, V421E, N430A, V461H, G462P, T463P
B10: I283T-P284D-i284aP-N287P-S322T-N388M-C430N-L432F-L434W-S436N-dG462 (protein)
chain: B1 chain with V421E, V461H, T463A
B11: I283T-P284D-i284aP-N287P-S322T-N388M-E421V-C430N-L432F-L434W-S436N-H461V-dG462-A463T (protein)
chain: B1 chain
B12: N287K-N388M-K394R-C430N-L432F-L434W-S436N (protein)
chain: B1 chain with T283I, D284P, P287K, T322S, K394R, V421E, V461H, T463A
B13: I283T-N285P-N287T-Q290E-S322T-N388M-K394R-C430A-L432F-L434W-S436N-dA463 (protein)
chain: B1 chain with D284P, N285P, P287T, Q290E, K394R, V421E, N430A, V461H, T463A
B14: L223Y-I283T-N285P-N287T-Q290E-S322T-N388M-K394R-C430A-L432F-L434W-S436N-dG462 (protein)
chain: B1 chain with L223Y, D284P, N285P, P287T, Q290E, K394R, V421E, N430A, V461H, T463A
B15: I283T-P284D-N287P-S322T-N388M-R422F-C430N-L432F-L434W-S436N-dG462 (protein)
chain: B1 chain with V421E, R422F, V461H, T463A
B16: I283T-P284D-i284aP-N287P-S322T-N388M-E421V-R422F-C430N-L432F-L434W-S436N-dG462-A463T (protein)
chain: B1 chain with R422F, V461H
B17: P184S-I283T-N285P-N287T-Q290E-S322T-N388M-K394R-C430A-L432F-L434W-S436N-dG462 (protein)
chain: B1 chain with P184S, D284P, N285P, P287T, Q290E, K394R, V421E, N430A, V461H, T463A
B18: N287I-N388M-K394R-C430N-L432F-L434W-S436N (protein)
chain: B1 chain with T283I, D284P, P287I, T322S, K394R, V421E, V461H, T463A
B19: I283T-P284D-i284aP-N287P-S322T-N388M-C430N-L432F-L434W-S436N-H461A-dG462 (protein)
chain: B1 chain with V421E, V461A, T463A
B20: I283T-P284D-N285I-N287T-i287aS-S322T-N388M-K394R-C430A-L432F-L434W-S436N-G462P-A463P (protein)
chain: B1 chain with N285I, P287T, K394R, V421E, N430A, V461H, G462P, T463P
B21: I283T-P284D-N287P-S322T-N388M-R422F-C430N-L432F-L434W-S436N-H461T-dG462-A463T (protein)
chain: B1 chain with V421E, R422F, V461T
B22: I283T-P284D-i284aP-N287P-S322T-N388M-E421V-R422F-C430N-L432F-L434W-S436N-H461T-dG462 (protein)
chain: B1 chain with R422F, V461T, T463A
B23: I283T-P284D-N287P-S322T-N388M-E421V-C430N-L432F-L434W-S436N-dG462 (protein)
chain: B1 chain with V461H, T463A
B24: I283T-P284D-N287P-S322T-N388M-R422F-C430N-L432F-L434W-S436N-H461V-dG462-A463T (protein)
chain: B1 chain with V421E, R422F
B25: V227Y-I283T-N285P-N287T-Q290E-S322T-N388M-K394R-C430A-L432F-L434W-S436N-dG462 (protein)
chain: B1 chain with V227Y, D284P, N285P, P287T, Q290E, K394R, V421E, N430A, V461H, T463A
B26: I283T-P284D-N287P-S322T-N388M-E421V-R422F-C430N-L432F-L434W-S436N-H461V-dG462-A463T (protein)
chain: B1 chain with R422F
B27: I283T-P284D-N285M-N287T-S322T-N388M-K394R-C430A-L432F-L434W-S436N-C437M-G462P-A463P (protein)
chain: B1 chain with N285M, P287T, K394R, V421E, N430A, C437M, V461H, G462P, T463P
B28: I283T-P284D-i284aP-N287P-S322T-N388M-E421V-C430N-L432F-L434W-S436N-H461T-dG462-A463T (protein)
chain: B1 chain with V461T
B29: I283T-P284D-i284aP-N287P-S322T-N388M-C430N-L432F-L434W-S436N-H461A-dG462-A463T (protein)
chain: B1 chain with V421E, V461A
B30: I283T-P284D-i284aP-N287P-S322T-N388M-E421V-C430N-L432F-L434W-S436N-dG462-A463T (protein)
chain: B1 chain with V461H
B31: L223Y-I283T-N285P-N287T-Q290E-S322T-N388M-K394R-K423G-C430A-L432F-L434W-S436N-dG462 (protein)
chain: MFLKSLREQINLLKRQGDLRIINRPVDSYLEAAAIIRRSTETKAPVPLMTNIKGYPGCSIVGGLAALSSNPEYPLSRVAMSLGLSTTASAQSIVQYLIDGLKKTPYLPVEIDSNSAPCKQNILRGEDASLAHFPIPQVHQHDGNRYVNTWGVFIVESPDGQWCNWSIQRVQYLNDRQMIALVFPSQHISDIWEEWVKIGKPMPYALVQGCEPIVPYIAGLPLYERNVNEAEYIGALYGKGIEVVKCETHDLRVPASSEVVIEGYFAITREGVEGPFGEFAGYTPPETSLEPILSITAISWQDDPIWPVVAEGKPVDEYHTCTGIGDAAAIQNVLLTANLPVSFVWVPLYSACHLMIVSINRHWRQTHPDLTSEQLTKKVGDVIHQTRMSIKLPRIVVLDDDVDPADTESLLWALATRIHPERGRYFYESAIFPWLNCYSEEERHNRKGKRVIIDALLPENHGAISSFDYAYPDDIKQRVLMHWETDFSHD
B32: E126K-H141Q-I283T-N285P-N287T-Q290E-S322T-N388M-K394R-C430A-L432F-L434W-S436N-dG462 (protein)
chain: B31 chain with E126K, H141Q, Y223L, G423K

Numbering of substitutions follows the chain as printed. In names and notes the source's numbering stands.

The test system of this experiment is 3-methylcrotonic acid. It is filed as biochemical, Yersinia frederiksenii. Also on record: key: “+” representing a low increase in activity; “++++” representing a high increase in activity.
B1: the “Activity relative to WT” value is reported as “++++”.

Regarding B2, the “Activity relative to WT” value is “++++”. The result for B3 reads “++++”. In the case of B4 it was “++++”. The result for B5 reads “++++”; that for B6, “++++”. With B7, the “Activity relative to WT” value was “++++”. For B8, the “Activity relative to WT” value is on record as “++++”. In the case of B9 it was “++++”.

Take B10: the “Activity relative to WT” value is “++++”. In the case of B11 it was “++++”. In the case of B12 it was “+”; in that of B13, “++++”. The result for B14 reads “++++”.

For B15, the “Activity relative to WT” value is listed as “++++”. The result for B16 reads “++++”.

Turning to B17, the “Activity relative to WT” value is listed as “++++”. The result for B18 reads “+”. Turning to B19, the “Activity relative to WT” value is listed as “++++”. The result for B20 reads “++++”. In the case of B21, the “Activity relative to WT” value is listed as “++++”.

With B22, the “Activity relative to WT” value is “++++”.

Take B23: the “Activity relative to WT” value is “++++”. In the case of B24 it was “++++”; in that of B25, “++++”. In the case of B26 it was “++++”; in that of B27, “++++”. In the case of B28 it was “++++”. On to B29, for which the “Activity relative to WT” value is recorded as “++++”.

Regarding B30, the “Activity relative to WT” value is listed as “++++”. The result for B31 reads “++++”.

In the case of B32, the “Activity relative to WT” value was “++++”.

For the origin of these results see patent US20250327097A1, “ORGANISMS PRODUCING LESS CROTONIC ACID” (Global Bioenergies, priority 2021, published 2025).
